Measured values: patent publication US20180009871A1 (INTARCIA THERAPEUTICS, published 2018)
Where no end group is shown, it is not given here. [ ]: non-standard residue; d: D form. Formula III = not defined here; Formula II = not defined here; Aib = CC(C)(N)C(=O)O

Key:
Test in all cases: cell-based or functional assay
[1] = target: human glucagon receptor (GCGR) (human, UniProt P47871 26-477)
[2] = target: human GLP-1 receptor (GLP-1R) (human, UniProt P43220 24-463)
Target sequence in this assay (P43220 24-463): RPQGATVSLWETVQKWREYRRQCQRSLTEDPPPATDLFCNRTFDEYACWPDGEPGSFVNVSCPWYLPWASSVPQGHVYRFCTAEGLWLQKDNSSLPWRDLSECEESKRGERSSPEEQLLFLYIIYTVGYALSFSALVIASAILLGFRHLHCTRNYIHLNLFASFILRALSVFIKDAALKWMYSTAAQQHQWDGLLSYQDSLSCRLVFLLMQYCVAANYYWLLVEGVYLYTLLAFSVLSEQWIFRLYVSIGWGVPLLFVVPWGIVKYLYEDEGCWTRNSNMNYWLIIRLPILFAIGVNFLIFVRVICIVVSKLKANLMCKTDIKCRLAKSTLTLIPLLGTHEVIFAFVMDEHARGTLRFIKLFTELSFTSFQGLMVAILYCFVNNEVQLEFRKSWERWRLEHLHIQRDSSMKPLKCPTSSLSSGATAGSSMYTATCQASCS

[3] = target: human GLP-1 receptor (GLP-1R) (human, UniProt P43220 24-463); remark: listed apart in the source
Target sequence in this assay (P43220 24-463): as above

[4] = target: human glucagon receptor (GCGR) (human, UniProt P47871 26-477); remark: listed apart in the source

| Binder | GluR pEC 50 [1] [pEC50] | GLP-1R pEC 50 [2] [pEC50] | hGLP1 pEC50 (cAMP) [3] [pEC50] | hGCGR pEC50 (cAMP) [4] [pEC50] |
| --- | --- | --- | --- | --- |
| YSHGTFTSDYSKYLDK(Formula II)KSAQEFV[Aib]WLEDEPSSGAPPPS-OH (reading uncertain) [Compound B11] | 10.3 | 6.3 | – | – |
| YSHGTFTSDYSKYLDK(Formula III)KYAQEFV[Aib]WLEDEPSSGAPPPS-OH (reading uncertain) [Compound B7] | 8.6 | < 6 | – | – |
| YSHGTFTSDYSKYLD[Aib]KRAQEFV[Aib]WLEDEPSSKGAPPPS-OH (N-terminus assumed; SMILES CC(C)C[C@H](NC(=O)[C@H](Cc1ccc(O)cc1)NC(=O)[C@H](CCCCN)NC(=O)[C@H](CO)NC(=O)[C@H](Cc1ccc(O)cc1)NC(=O)[C@H](CC(=O)O)NC(=O)[C@H](CO)NC(=O)[C@@H](NC(=O)[C@H](Cc1ccccc1)NC(=O)[C@@H](NC(=O)CNC(=O)[C@H](Cc1c[nH]cn1)NC(=O)[C@H](CO)NC(=O)[C@@H](N)Cc1ccc(O)cc1)[C@@H](C)O)[C@@H](C)O)C(=O)N[C@@H](CC(=O)O)C(=O)NC(C)(C)C(=O)N[C@@H](CCCCN)C(=O)N[C@@H](CCCNC(=N)N)C(=O)N[C@@H](C)C(=O)N[C@@H](CCC(N)=O)C(=O)N[C@@H](CCC(=O)O)C(=O)N[C@@H](Cc1ccccc1)C(=O)N[C@H](C(=O)NC(C)(C)C(=O)N[C@@H](Cc1c[nH]c2ccccc12)C(=O)N[C@@H](CC(C)C)C(=O)N[C@@H](CCC(=O)O)C(=O)N[C@@H](CC(=O)O)C(=O)N[C@@H](CCC(=O)O)C(=O)N1CCC[C@H]1C(=O)N[C@@H](CO)C(=O)N[C@@H](CO)C(=O)N[C@@H](CCCCN)C(=O)NCC(=O)N[C@@H](C)C(=O)N1CCC[C@H]1C(=O)N1CCC[C@H]1C(=O)N1CCC[C@H]1C(=O)N[C@@H](CO)C(=O)O)C(C)C) [Compound A24] | – | – | < 9 | 12.2 |
| YSHGTFTSDYSKYLD[Aib]KRAQEFV[Aib]WLEDEGGPSSGAPPPS-OH (N-terminus assumed; SMILES CC(C)C[C@H](NC(=O)[C@H](Cc1ccc(O)cc1)NC(=O)[C@H](CCCCN)NC(=O)[C@H](CO)NC(=O)[C@H](Cc1ccc(O)cc1)NC(=O)[C@H](CC(=O)O)NC(=O)[C@H](CO)NC(=O)[C@@H](NC(=O)[C@H](Cc1ccccc1)NC(=O)[C@@H](NC(=O)CNC(=O)[C@H](Cc1c[nH]cn1)NC(=O)[C@H](CO)NC(=O)[C@@H](N)Cc1ccc(O)cc1)[C@@H](C)O)[C@@H](C)O)C(=O)N[C@@H](CC(=O)O)C(=O)NC(C)(C)C(=O)N[C@@H](CCCCN)C(=O)N[C@@H](CCCNC(=N)N)C(=O)N[C@@H](C)C(=O)N[C@@H](CCC(N)=O)C(=O)N[C@@H](CCC(=O)O)C(=O)N[C@@H](Cc1ccccc1)C(=O)N[C@H](C(=O)NC(C)(C)C(=O)N[C@@H](Cc1c[nH]c2ccccc12)C(=O)N[C@@H](CC(C)C)C(=O)N[C@@H](CCC(=O)O)C(=O)N[C@@H](CC(=O)O)C(=O)N[C@@H](CCC(=O)O)C(=O)NCC(=O)NCC(=O)N1CCC[C@H]1C(=O)N[C@@H](CO)C(=O)N[C@@H](CO)C(=O)NCC(=O)N[C@@H](C)C(=O)N1CCC[C@H]1C(=O)N1CCC[C@H]1C(=O)N1CCC[C@H]1C(=O)N[C@@H](CO)C(=O)O)C(C)C) [Compound A27] | – | – | < 9 | 12.1 |
| YSHGTFTSDYSKYLD[Aib]KYAQEFVK(Formula II)WLEDEPSSGAPPPS-OH (reading uncertain) [Compound B2] | 11.1 | < 6 | – | – |
| YSHGTFTSDYSKYLD[Aib]KSAQEFVKWLEDEPSSGAPPPS-OH (not fully specified (residue 24); printed as YSHGTFTSDYSKYLD(Aib)KSAQEFVK****WLEDEPSSGAPPPS-OH; also: structure of Formula II substituent not given here) [Compound B10] | 9.9 | < 6 | – | – |
| YSHGTFTSDYSKYLD[Aib]KYAQEFVK(Formula III)WLEDEPSSGAPPPS-OH (reading uncertain) [Compound B6] | 10.1 | < 6 | – | – |
| YSHGTFTSDYSKYLDK(Formula II)KYAQEFV[Aib]WLEDEPSSGAPPPS-OH (reading uncertain) [Compound B3] | 11.4 | < 6 | – | – |
| YSHGTFTSDYSKYLD[Aib]KSAQEFV[Aib]WLEDEPSSK(Formula II)APPPS-OH (reading uncertain) [Compound B9] | 11.1 | < 6 | – | – |
| YSHGTFTSDYSKYLD[Aib]KSAQEFV[Aib]WLEDEPSSK(Formula III)APPPS-OH (reading uncertain) [Compound B13] | 9.2 | < 6 | – | – |
| YSHGTFTSDK(Formula III)SKYLD[Aib]KSAQEFV[Aib]WLEDEPSSGAPPPS-OH (reading uncertain) [Compound B16] | 8.5 | 8.3 | – | – |
| YSHGTFTSDK(Formula II)SKYLD[Aib]KSAQEFV[Aib]WLEDEPSSGAPPPS-OH (reading uncertain) [Compound B12] | 11.5 | 7.2 | – | – |
| YSHGTFTSDYSKYLD[Aib]KRAQEFV[Aib]WLEDEPSSGAPPPSE-OH (N-terminus assumed; SMILES CC(C)C[C@H](NC(=O)[C@H](Cc1ccc(O)cc1)NC(=O)[C@H](CCCCN)NC(=O)[C@H](CO)NC(=O)[C@H](Cc1ccc(O)cc1)NC(=O)[C@H](CC(=O)O)NC(=O)[C@H](CO)NC(=O)[C@@H](NC(=O)[C@H](Cc1ccccc1)NC(=O)[C@@H](NC(=O)CNC(=O)[C@H](Cc1c[nH]cn1)NC(=O)[C@H](CO)NC(=O)[C@@H](N)Cc1ccc(O)cc1)[C@@H](C)O)[C@@H](C)O)C(=O)N[C@@H](CC(=O)O)C(=O)NC(C)(C)C(=O)N[C@@H](CCCCN)C(=O)N[C@@H](CCCNC(=N)N)C(=O)N[C@@H](C)C(=O)N[C@@H](CCC(N)=O)C(=O)N[C@@H](CCC(=O)O)C(=O)N[C@@H](Cc1ccccc1)C(=O)N[C@H](C(=O)NC(C)(C)C(=O)N[C@@H](Cc1c[nH]c2ccccc12)C(=O)N[C@@H](CC(C)C)C(=O)N[C@@H](CCC(=O)O)C(=O)N[C@@H](CC(=O)O)C(=O)N[C@@H](CCC(=O)O)C(=O)N1CCC[C@H]1C(=O)N[C@@H](CO)C(=O)N[C@@H](CO)C(=O)NCC(=O)N[C@@H](C)C(=O)N1CCC[C@H]1C(=O)N1CCC[C@H]1C(=O)N1CCC[C@H]1C(=O)N[C@@H](CO)C(=O)N[C@@H](CCC(=O)O)C(=O)O)C(C)C) [Compound A26] | – | – | < 9 | 11.1 |
| YSHGTFTSDK(Formula II)SKYLD[Aib]KYAQEFV[Aib]WLEDEPSSGAPPPS-OH (reading uncertain) [Compound B4] | 9.1 | < 6 | – | – |
| YSHGTFTSDK(Formula III)SKYLD[Aib]KYAQEFV[Aib]WLEDEPSSGAPPPS-OH (reading uncertain) [Compound B8] | 10.6 | < 6 | – | – |
| WSQGTFTSDYSKYLD[Aib]KRAQEFV[Aib]WLEDEPSSK(Formula II)APPPS-OH (reading uncertain) [Compound B17] | 10.5 | < 6 | – | – |
| YSHGTFTSDYSKYLD[Aib]KYAQEFV[Aib]WLEDEPSSK(Formula III)APPPS-OH (reading uncertain) [Compound B5] | 9.6 | < 6 | – | – |
| YSHGTFTSDYSKYLDK(Formula III)KSAQEFV[Aib]WLEDEPSSGAPPPS-OH (reading uncertain) [Compound B15] | 9.9 | < 6 | – | – |
| YSHGTFTSDYSKYLD[Aib]KRAQEFV[Aib]WLEDEPSSGAPPPSS-OH (N-terminus assumed; SMILES CC(C)C[C@H](NC(=O)[C@H](Cc1ccc(O)cc1)NC(=O)[C@H](CCCCN)NC(=O)[C@H](CO)NC(=O)[C@H](Cc1ccc(O)cc1)NC(=O)[C@H](CC(=O)O)NC(=O)[C@H](CO)NC(=O)[C@@H](NC(=O)[C@H](Cc1ccccc1)NC(=O)[C@@H](NC(=O)CNC(=O)[C@H](Cc1c[nH]cn1)NC(=O)[C@H](CO)NC(=O)[C@@H](N)Cc1ccc(O)cc1)[C@@H](C)O)[C@@H](C)O)C(=O)N[C@@H](CC(=O)O)C(=O)NC(C)(C)C(=O)N[C@@H](CCCCN)C(=O)N[C@@H](CCCNC(=N)N)C(=O)N[C@@H](C)C(=O)N[C@@H](CCC(N)=O)C(=O)N[C@@H](CCC(=O)O)C(=O)N[C@@H](Cc1ccccc1)C(=O)N[C@H](C(=O)NC(C)(C)C(=O)N[C@@H](Cc1c[nH]c2ccccc12)C(=O)N[C@@H](CC(C)C)C(=O)N[C@@H](CCC(=O)O)C(=O)N[C@@H](CC(=O)O)C(=O)N[C@@H](CCC(=O)O)C(=O)N1CCC[C@H]1C(=O)N[C@@H](CO)C(=O)N[C@@H](CO)C(=O)NCC(=O)N[C@@H](C)C(=O)N1CCC[C@H]1C(=O)N1CCC[C@H]1C(=O)N1CCC[C@H]1C(=O)N[C@@H](CO)C(=O)N[C@@H](CO)C(=O)O)C(C)C) [Compound A25] | – | – | < 9 | 11.3 |
| YSHGTFTSDYSKYLD[Aib]KSAQEFVK(Formula III)WLEDEPSSGAPPPS-OH (reading uncertain) [Compound B14] | 9.3 | < 6 | – | – |
